From patent US20170007714A1 (ONCOMATRYX BIOPHARMA S L, published 2017)

T1: mouse Endoglin on eEnd2 cells (mouse, UniProt Q63961 27-653)
T1 construct: also called ENG expressing mouse eEnd2
T1 sequence: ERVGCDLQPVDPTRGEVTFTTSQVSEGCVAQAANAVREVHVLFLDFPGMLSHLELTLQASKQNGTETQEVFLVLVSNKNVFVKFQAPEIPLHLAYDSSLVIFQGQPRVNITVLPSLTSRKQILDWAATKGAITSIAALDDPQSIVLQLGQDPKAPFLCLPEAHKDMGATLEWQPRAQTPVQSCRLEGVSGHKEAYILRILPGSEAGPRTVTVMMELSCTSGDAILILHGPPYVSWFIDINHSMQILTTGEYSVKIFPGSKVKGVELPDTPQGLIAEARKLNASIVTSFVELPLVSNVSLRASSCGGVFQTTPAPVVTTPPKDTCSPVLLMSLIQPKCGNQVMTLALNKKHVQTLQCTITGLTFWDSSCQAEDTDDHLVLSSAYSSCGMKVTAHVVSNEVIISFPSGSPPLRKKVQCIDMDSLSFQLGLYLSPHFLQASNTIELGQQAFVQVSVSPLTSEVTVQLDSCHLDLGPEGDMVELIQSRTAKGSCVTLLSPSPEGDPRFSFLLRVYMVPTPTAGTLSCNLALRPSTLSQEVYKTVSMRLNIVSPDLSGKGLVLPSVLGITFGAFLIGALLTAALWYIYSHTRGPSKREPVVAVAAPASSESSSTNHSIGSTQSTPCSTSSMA

T2: recombinant mouse ENG (aa 27-581) (mouse, UniProt Q63961 27-581)
T2 construct: also called rmENG; recombinant mouse Endoglin
T2 sequence: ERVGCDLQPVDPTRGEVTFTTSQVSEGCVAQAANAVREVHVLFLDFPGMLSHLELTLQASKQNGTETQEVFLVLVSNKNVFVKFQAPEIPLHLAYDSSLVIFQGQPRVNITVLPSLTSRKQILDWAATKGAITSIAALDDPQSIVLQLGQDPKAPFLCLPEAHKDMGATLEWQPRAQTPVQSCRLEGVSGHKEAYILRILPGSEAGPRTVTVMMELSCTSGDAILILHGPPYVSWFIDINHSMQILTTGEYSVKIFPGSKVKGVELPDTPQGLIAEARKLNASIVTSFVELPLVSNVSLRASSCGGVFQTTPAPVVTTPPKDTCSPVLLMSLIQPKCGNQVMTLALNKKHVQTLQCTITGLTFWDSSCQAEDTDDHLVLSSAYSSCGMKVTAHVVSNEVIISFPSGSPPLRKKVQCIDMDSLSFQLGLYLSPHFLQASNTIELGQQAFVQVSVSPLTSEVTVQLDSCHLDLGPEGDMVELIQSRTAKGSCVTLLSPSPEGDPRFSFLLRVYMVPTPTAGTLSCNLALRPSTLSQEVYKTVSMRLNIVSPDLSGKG

T3: human Endoglin on HT1080 cells (human, UniProt P17813 26-658)
T3 construct: also called ENG-positive HT1080
T3 sequence: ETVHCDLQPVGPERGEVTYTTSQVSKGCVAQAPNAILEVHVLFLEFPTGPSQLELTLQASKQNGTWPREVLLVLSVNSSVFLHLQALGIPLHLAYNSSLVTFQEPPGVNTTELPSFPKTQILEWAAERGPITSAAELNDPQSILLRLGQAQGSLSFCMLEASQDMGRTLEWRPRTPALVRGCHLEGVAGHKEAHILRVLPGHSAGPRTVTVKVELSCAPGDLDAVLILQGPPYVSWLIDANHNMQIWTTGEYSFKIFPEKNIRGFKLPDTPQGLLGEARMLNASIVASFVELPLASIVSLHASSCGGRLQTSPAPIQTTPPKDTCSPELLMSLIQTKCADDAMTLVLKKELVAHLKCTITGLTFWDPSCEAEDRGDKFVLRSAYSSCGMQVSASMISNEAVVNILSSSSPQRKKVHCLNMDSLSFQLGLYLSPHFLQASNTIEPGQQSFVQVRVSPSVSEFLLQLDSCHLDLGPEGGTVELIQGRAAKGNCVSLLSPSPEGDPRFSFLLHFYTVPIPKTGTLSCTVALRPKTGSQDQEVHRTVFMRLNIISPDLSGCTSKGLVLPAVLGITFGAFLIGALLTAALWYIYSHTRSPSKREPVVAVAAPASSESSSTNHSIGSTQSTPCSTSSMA

T4: recombinant human Endoglin (human, UniProt P17813 26-586)
T4 construct: It states only that the extracellular domain is residues 26-561; also called rhENG; recombinant human ENG
T4 sequence: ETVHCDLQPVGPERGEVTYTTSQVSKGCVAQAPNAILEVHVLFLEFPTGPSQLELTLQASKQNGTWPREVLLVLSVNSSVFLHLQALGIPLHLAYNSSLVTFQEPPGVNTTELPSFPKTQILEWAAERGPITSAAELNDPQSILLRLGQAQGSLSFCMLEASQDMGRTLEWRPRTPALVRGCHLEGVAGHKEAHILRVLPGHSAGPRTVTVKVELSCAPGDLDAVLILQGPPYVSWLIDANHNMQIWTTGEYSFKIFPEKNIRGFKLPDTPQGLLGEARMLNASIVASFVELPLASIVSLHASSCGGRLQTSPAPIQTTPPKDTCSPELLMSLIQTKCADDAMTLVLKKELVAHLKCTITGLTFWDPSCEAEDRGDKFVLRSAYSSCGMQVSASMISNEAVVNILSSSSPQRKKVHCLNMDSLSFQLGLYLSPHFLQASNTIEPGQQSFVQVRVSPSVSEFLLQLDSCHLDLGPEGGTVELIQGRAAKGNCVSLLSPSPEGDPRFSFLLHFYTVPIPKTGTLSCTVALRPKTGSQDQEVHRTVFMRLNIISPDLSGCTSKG

B1: anti-murine Endoglin mE12-IgG1 (antibody, V domains shown)
VH: EVQLVESGGGVVQPGRSLRLSCAASGFTFSSYGMHWVRQAPGKGLVWVSRINSDGSSTSYADSVKGRFTISRDNSKNTLYLQMNSLRAEDTAVYYCARATGTWVMSWGQGTLVTVSS
VL: SSELIQDPAVSVALGQTVRITCQGDSLRSYYASWYQQKPGQAPVLVIYGKNNRPSGIPDRFSGSSSGNTASLTITGAQAEDEADYYCNSRDSSGTVFGGGTKLTVLG
notes: Full-length human IgG1 (gamma1*/lambda, deficient for ADCC and CDC), made from the scFv mE12 and produced in CHO cells; also called anti-muENG mE12; OCMTX004p
B2: anti-human Endoglin A5-IgG1 (antibody, V domains shown)
VH: EVQLLESGGGLVQPGGSLRLSCAASGFTFSSYAMSWVRQAPGKGLEWVSAIYGSDGDTTYADSVKGRFTISRDNSKNTLYLQMNSLRAEDTAVYYCARVFYTAGFDYWGQGTLVTVSS
VL: DIELTQSPSSLSASVGDRVTITCRASQSISSSLNWYQQKPGKAPKLLIYAASSLQSGVPSRFSGSGSGTDFTLTISSLQPEDFATYYCQQAPAKPPTFGQGTKLEIKR
notes: Full-length human IgG1 (gamma1*/kappa, deficient for ADCC and CDC), made from the scFv A5 and produced in CHO cells; also called anti-huENG A5; A5 anti-huENG IgG1

Columns and labels:
[1] = target: T5, BSA (UniProt P02769 25-607); assay: ELISA, coated BSA as negative control
T5 construct: also called coated BSA; negative control (BSA)
T5 sequence (P02769 25-607 limits assumed): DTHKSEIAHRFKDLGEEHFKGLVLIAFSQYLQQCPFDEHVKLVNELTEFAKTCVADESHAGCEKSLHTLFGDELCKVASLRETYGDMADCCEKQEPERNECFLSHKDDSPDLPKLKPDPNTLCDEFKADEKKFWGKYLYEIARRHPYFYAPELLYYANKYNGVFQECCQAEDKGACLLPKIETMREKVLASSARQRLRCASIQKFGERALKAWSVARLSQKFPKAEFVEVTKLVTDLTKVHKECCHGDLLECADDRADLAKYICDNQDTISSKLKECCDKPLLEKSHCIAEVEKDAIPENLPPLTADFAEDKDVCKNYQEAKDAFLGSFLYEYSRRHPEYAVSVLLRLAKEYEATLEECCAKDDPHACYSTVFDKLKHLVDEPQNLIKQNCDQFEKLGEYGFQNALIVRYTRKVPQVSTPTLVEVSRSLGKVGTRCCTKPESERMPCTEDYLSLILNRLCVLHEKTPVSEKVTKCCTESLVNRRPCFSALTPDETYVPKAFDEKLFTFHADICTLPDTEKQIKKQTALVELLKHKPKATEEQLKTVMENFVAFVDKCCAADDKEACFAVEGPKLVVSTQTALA

[2] = target: T1, mouse Endoglin on eEnd2 cells; assay: flow cytometry on ENG-expressing mouse eEnd2 cells
Method: (§1) Cell binding was analyzed by flow cytometry, using ENG-positive HT1080 and ENG expressing mouse eEnd2.

[3] = target: T2, recombinant mouse ENG (aa 27-581); assay: ELISA on recombinant mouse ENG, detection with HRP-conjugated anti-human IgG
[4] = target: T3, human Endoglin on HT1080 cells; assay: flow cytometry on ENG-positive HT1080 cells
Method: as §1

[5] = target: T4, recombinant human Endoglin; assay: QCM (Attana A100) on rhENG; first of two constants
[6] = target: T4, recombinant human Endoglin; assay: QCM (Attana A100) on rhENG; second of two constants (avidity contribution noted)

Row | Binder | binding result [1] | EC50 [2] [nM] | EC50 [3] [nM] | EC50 [4] [nM] | Kd [5] [nM] | Kd [6] [nM]
1 | B1 | no binding | 89 | 60 |  |  | 
2 | B2 |  |  |  | 0.4 | 260 | 2.5
